Earlier results, collected in patent publication US20260217837A1, “FGFR3 BINDING MOLECULES AND METHODS OF USE THEREOF” (Regeneron Pharmaceuticals, Inc., priority 2023, published 2026).
Positions count from the first letter of the chain named. In names and notes the source's numbering stands.

B1: KE94: anti-FGFR3 IIIb and IIIc antibody of WO 2022/040560 A1; SEQ ID NO: 82/83 (antibody, V domains shown)
VH: QVQLQQSGAELVRPGASVTLSCKASGSTFTDFEIHWVKQTPVHGLEWIGAIDPETGGTAYNQKFKGKAILTAVKSSSTAYMGLRSLTSEDSAVYYCTRNYDGYSRTMDYWGQGTSVTVSS
VL: NIMMTQSPSSLAVSAGEKVTMSCKSSQSVLYSSNQKNYLAWYQQKPGQSPKLLIYWASTRESGVPDRFTGSGSGTDFSLSISSVQTEDLAVYYCHQYLSSYTFGGGTRLEMK
B2: KE35: anti-FGFR3 IIIb and IIIc antibody of WO 2022/040560 A1; SEQ ID NO: 74/75 (antibody, V domains shown)
VH: EVQLQQSGPELVKPGASVKMSCKASGYTFTDYNMHWVKQSHGKSLEWIGYINPNNGGTRYNQKFKGKATLTVNKSSSTAYMELRSLTSEDSAVYYCARERDYDGAMDYWGQGTSVTVSS
VL: DIQMTQSPSSLSASLGGKVTITCKASQDINKFIAWYQHKPGKGPRLLIHYTSTLQPGIPSRFSGSGSGRDYSFSISNLEPEDIATYYCLQYDNLLWTFGGGTKLEIK
B3: KE42: anti-FGFR3 IIIb and IIIc antibody of WO 2022/040560 A1; SEQ ID NO: 76/77 (antibody, V domains shown)
VH: B2 VH with E46Q, R59N, K63N, G66D, S77T, A105S, Y108F
VL: B2 VL with Y87F
B4: 20B4: anti-FGFR3 Igl 3 antibody of WO 2010/002862 A2; SEQ ID NO: 57/58 (antibody, V domains shown)
VH: EIQLQQSGPELVKPGASVKVSCKASGYSLTDYNMYWVKQSHGKSLEWIGYIDPYNGGTSYNQKFKGKATLTVDKSSSTAFMHLNSLTSEDSAVYYCARSLGPDFDYWGQGTTLTVSS
VL: QIVLTQSPAIMSASPGEKVTMTCSASSSVNYMHWYQQKSGTSPKRWIYDTSKLASGVPARFSGSGSGTSYSLTISSMEAEDTATYYCQQWNSNPLTFGAGTKLELK
B5: 184.6.1.N54S: anti-FGFR3 Ig-like domain 3 antibody of WO 2010/111367 A1; SEQ ID NO: 63/64 (antibody, V domains shown)
VH: EVQLVESGGGLVQPGGSLRLSCAASGFTFTSTGISWVRQAPGKGLEWVGRIYPTSGSTNYADSVKGRFTISADTSKNTAYLQMNSLRAEDTAVYYCARARTYGIYDLYVDYTEYVMDYWGQGTLV
VL: DIQMTQSPSSLSASVGDRVTITCRASQDVDTSLAWYQQKPGKAPKLLIYSASFLYSGVPSRFSGSGSGTDFTLTISSLQPEDFATYYCQQSTGHPQTFGQGTKVEIKR
B6: 184.6.62: anti-FGFR3 Ig-like domain 3 antibody of WO 2010/111367 A1; SEQ ID NO: 67/68 (antibody, V domains shown)
VH: B5 VH with T30S, S31T, G49A, T54L, S55Y, N59H
VL: B5 VL with D30S, S32A, L33V, S91T, T92Y, G93T, H94T, P95S, Q96L
B7: 184.6.1.NS D30E: anti-FGFR3 Ig-like domain 3 antibody of WO 2010/111367 A1; SEQ ID NO: 63/69 (antibody, V domains shown)
VH: B5 VH
VL: B5 VL with D30E
B8: 184.6.58: anti-FGFR3 Ig-like domain 3 antibody of WO 2010/111367 A1 (aka R3Mab); SEQ ID NO: 65/66 (antibody, V domains shown)
VH: B5 VH with G49A, S55N
VL: B5 VL with T31I, S91G, T92A, H94N, Q96Y
B9: KE58: anti-FGFR3 IIIb and IIIc antibody of WO 2022/040560 A1; SEQ ID NO: 78/79 (antibody, V domains shown)
VH: EVQLQQSGPDLVKPGASVKISCKASGYTVTDYYMNWVKQSHGKSLEWIGDINPNNGVTTYNQKFKDKATLTVDKSSSTAYMELRSLTSEDSAVYYCAREEDFDGFDYWGQGTTLTVSS
VL: DIVMTQSHKFMSTSVGDRVSITCKASQDVSTGVAWYQQKPGQSPQLLIYWASTRHTGVPDRFTGSGSGTDYILTIRSVQAEDLALYYCQQHYSTPLTFGAGTKLELK
B10: Hu15D8: anti-FGFR3 Igl 3 antibody of WO 2010/002862 A2; SEQ ID NO: 59/60 (antibody, V domains shown)
VH: EVQLVQSGAEVKKPGESLKISCKGSGYSFTSYNMYWVRQMPGKGLEWMGYIDPYNGGTSYNQKFKGKATLTVDKSISTAYLQWSSLKASDTAMYYCAREGGNYEAWFAYWGQGTLVTVSS
VL: DIQLTQSPSSLSASVGDRVTITCSASSSVSYMYWFQQKPGKAPKPLIYLTSYLASGVPSRFSGSGSGTDFTLTISSLQPEDFATYYCQQWSSYPLTFGGGTKVEIK
B11: 4E7(7D12): anti-FGFR3 Igl 3 antibody of WO 2010/002862 A2; SEQ ID NO: 56/54 (antibody, V domains shown)
VH: EIQLQQSGPELVKPGASVKVSCKASGYAFTSYNMYWVKQSHGKSLEWIGYIDPYNGGTRYNQKFKGKATLTVDKSSSTAYMHLNSLTSEDSAVYYCAREGGNYEAWFAYWGQGTLVTVSA
VL: QIVLTQSPALMSASPGEKVTMTCSASSSVSYMYWYQQKPRSSPKPWIYLTSNLASGVPARFSGSGSGTSYSLTISSMEAEDAATYYCQQWSSNPLTFGAGTKLELK
B12: MS-Pro-59: anti-FGFR3 Ig-like domain 3 antibody of WO 2002/102972 A2; SEQ ID NO: 28/29 (antibody, V domains shown)
VH: QVQLQQSGPGLVKPSQTLSLTCAISGDSVSSNSAAWNWIRQSPGRGLEWLGRTYYRSKWYNDYAVSVKSRITINDTSKNQFSLQLNSVTPEDTAVYYCARSYYPDFDYWGQGTVTVSS
VL: DIELTQPPSVSVAPGQTARISCSGDALGDKYASWYQQKPGQAPVLVIYDDSDRPSGIPERFSGSNSGNTATLTISGTQAEDEADYYCQSYDGPDLWVFGGGTKLTVLGQ
B13: KC18: anti-FGFR3 IIIb and IIIc antibody of WO 2022/040560 A1; SEQ ID NO: 72/73 (antibody, V domains shown)
VH: QVQLQQSGAELVRPGASVTLSCKASGDTFTDFEIHWVKQTPVHGLEWIGDIDPETGGTAYNQKFRGRAMLTADRSSSTAYMELRSLTSEDSAVYYCTRTYDGYPYAMDYWGQGTSVTVSS
VL: DIVMSQSPSSLAVSVGEKVTMSCKSSQSLLYSNNQKNYLAWYQQKPGQSPKLLIYWASTRESGVPDRFTGSGSGTDFTLTISSVKAEDLAVYYCQQYYSYRTFGGGTKLEIK
B14: KE63: anti-FGFR3 IIIb and IIIc antibody of WO 2022/040560 A1; SEQ ID NO: 80/81 (antibody, V domains shown)
VH: B1 VH with T30S, A50G, V73D, K74R, G82E, R105Q
VL: B1 VL with S78T, S80T, T86A, R108K
B15: MS-Pro-11: anti-FGFR3 Ig-like domain 3 antibody of WO 2002/102972 A2; SEQ ID NO: 30/31 (antibody, V domains shown)
VH: QVQLVQSGAEVKKPGASVKVSCKASGYTFTSYYMHWVRQAPGQGLEWMGWINPNSGGTNYAQKFQGRVTMTRDTSISTAYMELSSLRSEDTAVYYCARYYGSSLYHYVFGGFIDYWGQGTLVTVSS
VL: DIALTQPASVSGSPGQSITISCTGTSSDVGGYNYVSYQQHPGKAPKLMIYDVSNRPSGVSNRFSGSKSGNTASLTISGLQAEDEADYYCQSHHFYEVFGGGTKLTVLGQ
B16: FGA0002: anti-FGFR3 (S249C mutant) antibody of WO 2021/010326 A1; SEQ ID NO: 84/85 (antibody, V domains shown)
VH: QELVESGGGLVQPGGSLKLSCKASGIDFSSYGISWVRQAPGKGLEWIAYIVPGFGIRNYANSVKGRFTISSDNAQNTVFLQMTSLTASDTATYFCARVPQYASSSGYYLPFNLWGPGTLVTVSS
VL: ALVMTQTPSPVSAAVGGTVTINCQASEDIYYNLAWFQQKPGQPPKLLIYRASTLASGVPSRFSGSGSGTEFTLTISDVQCDDAATYYCLGVYTYISADGNAFGGGTEVVVK
B17: VH: SEQ ID NO: 7 of PCT Publication No: WO 2010/048026 A2: unnamed anti-FGFR3 Ig-like domain 2 antibody, VH SEQ ID NO: 7 / VL SEQ ID NO: 8 of WO 2010/048026 A2; SEQ ID NO: 61/62 (antibody, V domains shown)
VH: EVQLVQSGAEVKKPGASVKVSCKASGYMFTSYGISWVRQAPGQGLEWMGWVSTYNGDTNYAQKFQGRVTVTTDTSTSTAYMELRSLRSEDTAVYYCARVLGYYDSIDGYYYGMDVWGQGTTVTVSS
VL: QSVLTQPPSLSVAPGKTATFTCGGNNIGDKSVHWYRQKPGQAPVLVMYLDTERPSGIPERMSGSNFGNTATLTITRVEAEDEADYYCQVWDSGSDHVVFGGGTKLTVLG
B18: B-701: anti-FGFR3 antibody of WO 2016/134234 A1; SEQ ID NO: 70/71 (antibody, V domains shown)
VH: EVQLVESGGGLVQPGGSLRLSCAASGFTFTSTGISWVRQAPGKGLEWVGRIYPTSGSTNYADSVKGRFTISADTSKNTAYLQMNSLRAEDTAVYYCARTYGIYDLYVDYTEYVMDYWGQGTLV
VL: B5 VL with Q37K

System: FGFR3
Settings: Exemplary FGFR3 D3 binding sequences; antibodies of cited PCT publications

Which Activity does the source give for B1 here?
The Activity was “Antagonistic”.

Which Activity does the source give for B2 here?
The Activity was “Antagonistic”.

For B3, which Activity is on record?
The Activity was “Antagonistic”.

Which Activity does the source give for B4 here?
Its Activity is “Antagonistic”.

For B5, which Activity is on record?
Its Activity is “Antagonistic”.

Which Activity does the source give for B6 here?
Its Activity is “Antagonistic”.

With B7 as the molecule, how does the Activity read?
The Activity was “Antagonistic”.

With B8 as the molecule, how does the Activity read?
The Activity was “Antagonistic”.

With B9 as the molecule, how does the Activity read?
Its Activity is “Antagonistic”.

For B10, which Activity is on record?
The Activity was “Antagonistic”.

With B11 as the molecule, how does the Activity read?
Its Activity is “Antagonistic”.

With B12 as the molecule, how does the Activity read?
Its Activity is “Antagonistic”.

Which Activity does the source give for B13 here?
The Activity was “Antagonistic”.

Which Activity does the source give for B14 here?
Its Activity is “Antagonistic”.

With B15 as the molecule, how does the Activity read?
Its Activity is “Antagonistic”.

Same assay, conditions: Table T-1, exemplary FGFR3 parental antibodies of cited publications

Which Activity does the source give for B16 here?
The Activity was “Antagonistic”.

With B1 as the molecule, how does the Activity read?
Its Activity is “Antagonistic”.

With B2 as the molecule, how does the Activity read?
Its Activity is “Antagonistic”.

For B3, which Activity is on record?
Its Activity is “Antagonistic”.

With B4 as the molecule, how does the Activity read?
Its Activity is “Antagonistic”.

Which Activity does the source give for B17 here?
The Activity was “Antagonistic”.

With B5 as the molecule, how does the Activity read?
Its Activity is “Antagonistic”.

For B6, which Activity is on record?
The Activity was “Antagonistic”.

With B7 as the molecule, how does the Activity read?
The Activity was “Antagonistic”.

For B8, which Activity is on record?
Its Activity is “Antagonistic”.

With B18 as the molecule, how does the Activity read?
Its Activity is “Antagonistic”.

For B9, which Activity is on record?
Its Activity is “Antagonistic”.

With B10 as the molecule, how does the Activity read?
Its Activity is “Antagonistic”.

For B11, which Activity is on record?
The Activity was “Antagonistic”.

Which Activity does the source give for B12 here?
Its Activity is “Antagonistic”.

For B13, which Activity is on record?
Its Activity is “Antagonistic”.

For B14, which Activity is on record?
The Activity was “Antagonistic”.

Which Activity does the source give for B15 here?
Its Activity is “Antagonistic”.
